According to PMC3493473:

Tests used:
[1] = biological target: T1, ROP18-kinase domain (ROP18-KD) (Toxoplasma gondii) (UniProt Q2PAY2)
T1 sequence: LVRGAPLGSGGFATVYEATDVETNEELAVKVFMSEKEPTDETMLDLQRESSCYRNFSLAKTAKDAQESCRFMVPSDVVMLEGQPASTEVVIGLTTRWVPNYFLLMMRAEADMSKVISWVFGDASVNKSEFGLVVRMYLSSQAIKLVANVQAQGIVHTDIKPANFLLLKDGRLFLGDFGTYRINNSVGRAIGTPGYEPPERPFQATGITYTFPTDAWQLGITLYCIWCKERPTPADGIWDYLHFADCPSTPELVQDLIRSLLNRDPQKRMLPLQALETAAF

[2] = biological target: full length ROP18 (ROP18-FL), recombinant (Toxoplasma gondii (type I RH strain))

Substance: recombinant ROP5 (rROP5) (from UniProt F2YGR7 25-549) (natural protein)
- in vitro 32P kinase activity of ROP18-KD (100 ng) on dMBP with against without rROP5 (200 ng), fold increase (Figure 5E) [1]: 12 fold
- in vitro 32P kinase activity of ROP18-FL (25 ng) on immunoprecipitated Irgb6 with against without rROP5 (50 ng), fold increase (Figure 5F) [2]: 12 fold
